Assay [1] deals with CTLA-4 (as used in the CTLA-4 binding assay) (human) (UniProt P16410). Nature of the assay: CTLA-4 binding relative to tremelimumab Reference Standard; method not named for this table (competitive ELISA or SPR per the methods). A general note: In an ELISA, binding on a coated surface is turned into a signal by an enzyme label.
The target of assay [2] is CTLA4 on the cells of the reporter gene bioassay (human) (UniProt P16410). The assay can be described thus: cell-based or functional assay.
Chain of CTLA4 on the cells of the reporter gene bioassay (human) (P16410 36-223): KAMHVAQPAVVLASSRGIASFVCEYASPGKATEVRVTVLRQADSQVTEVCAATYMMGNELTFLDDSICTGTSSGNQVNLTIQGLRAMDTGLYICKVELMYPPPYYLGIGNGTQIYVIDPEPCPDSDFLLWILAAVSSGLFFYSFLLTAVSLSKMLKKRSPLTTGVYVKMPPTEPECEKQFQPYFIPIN
In a further assay the target is recombinant FcRn (UniProt P55899). The assay can be described thus: SPR, recombinant FcRn immobilized on the sensor; relative to Reference Standard.
Chain of recombinant FcRn (P55899 24-297 limits assumed, form in doubt, chain 1 of 2): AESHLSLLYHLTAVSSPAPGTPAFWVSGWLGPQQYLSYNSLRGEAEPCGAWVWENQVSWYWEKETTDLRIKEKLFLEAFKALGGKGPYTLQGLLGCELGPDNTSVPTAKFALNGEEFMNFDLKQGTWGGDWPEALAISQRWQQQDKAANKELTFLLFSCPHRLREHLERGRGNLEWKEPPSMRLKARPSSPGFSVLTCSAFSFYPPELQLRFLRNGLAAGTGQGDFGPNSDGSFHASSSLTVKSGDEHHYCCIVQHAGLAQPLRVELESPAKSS
Chain of recombinant FcRn (chain, as listed by the source limits assumed, form in doubt, chain 2 of 2): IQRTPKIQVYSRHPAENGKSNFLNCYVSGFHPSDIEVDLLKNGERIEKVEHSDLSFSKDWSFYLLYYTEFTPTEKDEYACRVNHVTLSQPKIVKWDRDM

The record followed here is patent US20250340643A1.

Chain of CTLA-4 (as used in the CTLA-4 binding assay) (human) (P16410 36-161 limits assumed): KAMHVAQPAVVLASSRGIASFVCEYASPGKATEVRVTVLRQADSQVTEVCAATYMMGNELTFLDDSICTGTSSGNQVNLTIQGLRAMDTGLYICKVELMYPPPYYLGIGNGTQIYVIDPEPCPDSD

In assay [1], “Tremelimumab IEC Fraction D (acidic peak 1), after pH 9 for 7 days (antibody)” displayed a Rel. CTLA-4 Binding (%) of 62%. The substance further yielded a Rel. Potency (%) (reporter gene bioassay) in assay [2] of 78%. In addition, the Rel. FcRn Binding (%) with recombinant FcRn was determined as 95%.
